The values that follow come from patent publication US20200239517A1.

pKd: −log10 of the molar value.

Experiment [1] addresses human polyclonal IgG (Gammanorm) (human). The experiment is described as follows: SPR, ligand on chip; IgG signal left after 0.5M NaOH cycles. In general terms: SPR reads the build-up and loss of mass on a sensor chip optically.
Experiment [2] shares this target. The experiment in a line: SPR; ratio to reference Zvar1 after 0.5M NaOH cycles.
The target is the same in experiment [3]. The experiment is described as follows: SPR, ligand on chip; IgG signal left after 1M NaOH cycles.
Experiment [4] has the same target. The experiment is described as follows: SPR; ratio to reference Zvar4 after 1M NaOH cycles.
For experiment [5] the target is unchanged. The experiment in a line: SPR; ratio to reference Zvar4 after 0.5M NaOH cycles.
The target is the same in experiment [6]. The experiment is described as follows: SPR; ratio to reference Zvar6 after 0.5M NaOH cycles.
In experiment [7] the target is IgG1 monoclonal antibody (probe molecule of Example 1). The experiment in a line: Biacore SPR, ligand on CM5 chip, IgG1 mAb as probe.

Turning to “parental C domain of Protein A (from UniProt A0A0H3K686 270-327)”, the Reference capacity after 96-100 cycles in experiment [1] was 49%.

For “Zvar(N11E, Q32E, K50R)1 (designed binder)”, the Capacity relative to reference in experiment [2] came to 1.04. The Capacity after 96-100 cycles in experiment [1] is 53%.

For “Zvar(Q9A, N11K, H18K, S33K, D37E, A42R, N43A, L44I, K50R, L51Y)1 (designed binder)”, the Capacity relative to reference in experiment [2] came to 1.28. In experiment [1], this substance registered a Capacity after 96-100 cycles of 59%.

Take “Zvar(Q9A, N11K, H18K, D37E, A42R, N43A, L44I, K50R)1 (designed binder)”: the Capacity relative to reference in experiment [2] amounted to 1.49. Moreover, in experiment [1], the Capacity after 96-100 cycles turned out to be 67%.

“Zvar(Q9A, N11E, Q40V, A42K, N43E, L44I)4 (designed binder)”: in experiment [3], the Remaining capacity 100 cycles (%) was found to be 54%. For the same substance, in experiment [1], the Remaining capacity 100 cycles (%) was 84%, the Remaining capacity 200 cycles (%) turned out to be 65% and the Remaining capacity 300 cycles (%) was 48%. In addition, in experiment [4], the Capacity relative to ref. 100 cycles stood at 2. Besides, in experiment [5], the Capacity relative to ref. 100 cycles came to 1.25, the Capacity relative to ref. 200 cycles was determined as 1.81 and the Capacity relative to ref. 300 cycles was 3.

Consider “parental B domain of Protein A (from UniProt A0A0H3K686 212-269)”, for which, in experiment [1], the Reference capacity after 96-100 cycles is 35%.

In experiment [1], “Zvar(Q9A, N11E, N28A, Q40V, A42K, N43A, L44I)4 (designed binder)” registered a Remaining capacity 100 cycles (%) of 84%. In addition, in experiment [5], the Capacity relative to ref. 100 cycles is 1.24.

As for “Zvar(Q9A, N11E, Q40V, A42K, N43A, L44I)6 (designed binder)”, the Capacity relative to ref. 100 cycles in experiment [6] was 1.3. This substance also yielded a Remaining capacity 100 cycles (%) in experiment [1] of 87%.

In the case of “Zvar(N11K, H18K, S33K, D37E, A42R, N43A, L44I, K50R, L51Y)1 (designed binder)”, the Capacity relative to reference in experiment [2] is 1.46. In experiment [1], this substance displayed a Capacity after 96-100 cycles of 67%.

With “Zvar(Q9A, N11E, Q40V, A42K, N43A, L44I)4 (designed binder)”, in experiment [3], the Remaining capacity 100 cycles (%) turned out to be 56%. In experiment [1], the Remaining capacity 100 cycles (%) came out at 90%, the Remaining capacity 200 cycles (%) worked out at 74% and the Remaining capacity 300 cycles (%) was found to be 57%. Also, the Capacity relative to ref. 100 cycles in experiment [4] is 2.07. Further, in experiment [5], the Capacity relative to ref. 100 cycles came out at 1.34, the Capacity relative to ref. 200 cycles amounted to 2.06 and the Capacity relative to ref. 300 cycles worked out at 3.56.

In experiment [3], “Zvar(Q9A, N11E, N28A, N43A)4 (designed binder)” displayed a Remaining capacity 100 cycles (%) of 55%. In experiment [1], this substance returned a Remaining capacity 100 cycles (%) of 80%, a Remaining capacity 200 cycles (%) of 62% and a Remaining capacity 300 cycles (%) of 42%. Moreover, the Capacity relative to ref. 100 cycles in experiment [4] turned out to be 2.04. For the same substance, in experiment [5], the Capacity relative to ref. 100 cycles was 1.19, the Capacity relative to ref. 200 cycles was found to be 1.72 and the Capacity relative to ref. 300 cycles was found to be 2.62.

Take “Zvar(Q9A, N11K, H18K, D37E, A42R, N43A, L44I)1 (designed binder)”: the Capacity relative to reference in experiment [2] stood at 1.4. The same substance displayed a Capacity after 96-100 cycles in experiment [1] of 63%.

As for “Zvar(Q9A, N11E, N43A)4 (designed binder)”, in experiment [1], the Remaining capacity 100 cycles (%) came to 81%, the Remaining capacity 200 cycles (%) was found to be 62% and the Remaining capacity 300 cycles (%) worked out at 41%. In experiment [5], the Capacity relative to ref. 100 cycles came to 1.21, the Capacity relative to ref. 200 cycles is 1.72 and the Capacity relative to ref. 300 cycles was determined as 2.56.

“Zvar(Q9A, N11E, D37E, Q40V, A42R, N43A, L44I)4 (designed binder)” came in with a Remaining capacity 100 cycles (%) in experiment [1] of 84%. Moreover, in experiment [5], the Capacity relative to ref. 100 cycles was 1.17.

One may read the pKd as the negative decadic logarithm of the Kd, by convention in mol/L. A higher pKd goes with a low Kd. The koff is the first-order rate constant of dissociation. Broadly, the kon is a measure of how fast the partners come together. Regarding “Zvar(Q9A, N11E, Q40V, A42K, N43A, L44I)1 (designed binder)”, in experiment [2], the Capacity relative to reference is 1.4. In experiment [1], this substance yielded a Capacity after 96-100 cycles of 66%. In experiment [7], this substance had a pKd of 8.97, a koff of 0.000437 s⁻¹ and a kon of 410000 M⁻¹ s⁻¹.

Turning to “Zvar(N11K, H18K, D37E, A42R, N43A, L44I)1 (designed binder)”, the Capacity relative to reference in experiment [2] is 1.31. Further, the Capacity after 96-100 cycles in experiment [1] is 59%.

For “Zvar(Q9A, N11E, N28A, Q40V, A42K, N43A, L44I)1 (designed binder)”, the Capacity relative to reference in experiment [2] came to 1.35. The same substance yielded a Capacity after 96-100 cycles in experiment [1] of 65%.

In the case of “Zvar(Q9A, N11E, D37E, Q40V, A42K, N43A, L44I)4 (designed binder)”, the Remaining capacity 100 cycles (%) in experiment [1] is 81%. Also, the Capacity relative to ref. 100 cycles in experiment [5] worked out at 1.13.
